US9725713

Assays:
[1] = system: MDA-MB-231 cell surface (target molecule unidentified, whole cells); assay: flow; conditions: apparent Kd on whole cells
[2] = system: MDA-MB-231 cell surface (target molecule unidentified, whole cells) (Homo sapiens?); assay: flow

“TCCCGAGTGACGCAGCCCCCGGCGGGATTNATCGGTGGACACGGTGGCTGAC [C23-P30]” was tested, and the Kd ([1]; n at 30 is P) was 160 nM.

Work on “TCCCGAGTGACGCAGCCCCCGGTGGGATTGATCGGTGGACACGGTGGCTGAC [T23-G30]” yielded a Kd ([2]; no binding at 250 nM) greater than 1000 nM.

Sequence “TCCCGAGTGACGCAGCCCCCGGTGGGATTAATCGGTGGACACGGTGGCTGAC [T23-A30]” has a Kd ([2]; no binding at 250 nM) greater than 1000 nM.

Sequence “TCCCGAGTGACGCAGCCCCCGGCGGGATTAATCGGTGGACACGGTGGCTGAC [C23-A30]” has a Kd ([2]; no binding at 250 nM) greater than 1000 nM.

Sequence “TCCCGAGTGACGCAGCCCCCGGZGGGATTPATCGGTGGACACGGTGGCTGAC [ZAP-2012 (Z23-P30)]” has a Kd ([1]; AEGIS DNA, Z at 23 (6-amino-5-nitro-3-(2'-deoxyribosyl)-2(1H)-pyridone), P at 30 (2-amino-8-(2'-deoxyribosyl)-imidazo[1,2-a]-1,3,5-triazin-4(8H)one), SEQ 7/16, DPBS, 5 mM MgCl2, glucose, tRNA, BSA, 10% FBS, library background subtracted) of 30 nM.

“TCCCGAGTGACGCAGCCCCCGGCGGGATTGATCGGTGGACACGGTGGCTGAC [C23-G30]” showed a Kd ([2]; no binding at 250 nM) greater than 1000 nM.

“TCCCGAGTGACGCAGCCCCCGGNGGGATTAATCGGTGGACACGGTGGCTGAC [Z23-A30]” was tested, and the Kd ([2]; n at 23 is Z, reduced binding at 250 nM, almost no binding in titration) was greater than 1000 nM.

“TCCCGAGTGACGCAGCCCCCGGTGGGATTNATCGGTGGACACGGTGGCTGAC [T23-P30]” was tested, and the Kd ([2]; n at 30 is P, no binding at 250 nM) was greater than 1000 nM.

Work on “TCCCGAGTGACGCAGCCCCCGGNGGGATTGATCGGTGGACACGGTGGCTGAC [Z23-G30]” yielded a Kd ([1]; n at 23 is Z) of 442 nM.
